Numbering of substitutions follows the chain as printed. Names and notes keep the numbering of the source.

The chains are these.
B1: VH2/VL2 Fab fragment (Fab, V domains shown)
VH: EVQVVQSGGGLVKPGESLRLSCAASGYTFTSYWMHWVKQAPGKGLEWVGAIYPGNSDTSYNQKFKGKFTISADTSSNTAYLQMNSLKTEDTAVYYCTTTTYGYDWFAYWGQGTLVTVSS
VL: NIQMTQSPSSLSASVGDRVTMSCKSSQSVLYSSNQKNYLAWYQQKPGKSPKLLIYWASTRESGVPDRFTGSGSGTDFTLTISSLQPEDFATYYCHQYLSSLTFGQGTKLEIK
notes: also called H2/L2 (Fab source); H2L2 hIgG1 Fab
B2: VH4/VL0 Fab fragment (Fab, V domains shown)
VH: B1 VH with A23K, S76P
VL: B1 VL with N1D, L11V, M21I, S22T, S49A, D66S, T69S, L109V
notes: also called H4/L0 (Fab source); H4L0 hIgG1 Fab
B3: VH0/VL0 Agly-hIgG1(T299A) (antibody, V domains shown)
VH: B1 VH with V4L, Q6E, E16G, K38R, K67R, A72R, T74D, S76K, A79L
VL: B1 VL with N1D, L11V, M21I, S22T, S49A, D66S, T69S, L109V
notes: also called H0/L0
B4: VH4/VL1 Agly-hIgG1(T299A) (antibody, V domains shown)
VH: B1 VH with A23K, S76P
VL: B1 VL with N1D, S22T, S49A, T69S
notes: also called H4/L1
B5: VH4/VL0 Agly-hIgG1(T299A) (antibody, V domains shown)
VH: B1 VH with A23K, S76P
VL: B1 VL with N1D, L11V, M21I, S22T, S49A, D66S, T69S, L109V
notes: also called H4/L0 (Agly-IgG1)
B6: VH2/VL2 Agly-hIgG1(T299A) (antibody, V domains shown)
VH: B1 VH
VL: B1 VL
notes: also called H2/L2 (Agly-IgG1)
B7: VH5/VL1 Agly-hIgG1(T299A) (antibody, V domains shown)
VH: B1 VH with V5Q, E16G, A23K, F68A, I70L, D73V, S76P
VL: B1 VL with N1D, S22T, S49A, T69S
notes: also called H5/L1
B8: VH5/VL2 Agly-hIgG1(T299A) (antibody, V domains shown)
VH: B1 VH with V5Q, E16G, A23K, F68A, I70L, D73V, S76P
VL: B1 VL
notes: also called H5/L2 (Agly-IgG1)
B9: VH4/VL2 Agly-hIgG1(T299A) (antibody, V domains shown)
VH: B1 VH with A23K, S76P
VL: B1 VL
notes: also called H4/L2 (Agly-IgG1)
B10: VH0/VL1 Agly-hIgG1(T299A) (antibody, V domains shown)
VH: B1 VH with V4L, Q6E, E16G, K38R, K67R, A72R, T74D, S76K, A79L
VL: B1 VL with N1D, S22T, S49A, T69S
notes: also called H0/L1
B11: VH2/VL0 Agly-hIgG1(T299A) (antibody, V domains shown)
VH: B1 VH
VL: B1 VL with N1D, L11V, M21I, S22T, S49A, D66S, T69S, L109V
notes: also called H2/L0
B12: VH3/VL2 Agly-hIgG1(T299A) (antibody, V domains shown)
VH: B1 VH with Q6E, E16G, A23K, I70L, D73V
VL: B1 VL
notes: also called H3/L2
B13: VH5/VL0 Agly-hIgG1(T299A) (antibody, V domains shown)
VH: B1 VH with V5Q, E16G, A23K, F68A, I70L, D73V, S76P
VL: B1 VL with N1D, L11V, M21I, S22T, S49A, D66S, T69S, L109V
notes: also called H5/L0

T2 sequence (P06756 31-1048 limits assumed, chain 1 of 2): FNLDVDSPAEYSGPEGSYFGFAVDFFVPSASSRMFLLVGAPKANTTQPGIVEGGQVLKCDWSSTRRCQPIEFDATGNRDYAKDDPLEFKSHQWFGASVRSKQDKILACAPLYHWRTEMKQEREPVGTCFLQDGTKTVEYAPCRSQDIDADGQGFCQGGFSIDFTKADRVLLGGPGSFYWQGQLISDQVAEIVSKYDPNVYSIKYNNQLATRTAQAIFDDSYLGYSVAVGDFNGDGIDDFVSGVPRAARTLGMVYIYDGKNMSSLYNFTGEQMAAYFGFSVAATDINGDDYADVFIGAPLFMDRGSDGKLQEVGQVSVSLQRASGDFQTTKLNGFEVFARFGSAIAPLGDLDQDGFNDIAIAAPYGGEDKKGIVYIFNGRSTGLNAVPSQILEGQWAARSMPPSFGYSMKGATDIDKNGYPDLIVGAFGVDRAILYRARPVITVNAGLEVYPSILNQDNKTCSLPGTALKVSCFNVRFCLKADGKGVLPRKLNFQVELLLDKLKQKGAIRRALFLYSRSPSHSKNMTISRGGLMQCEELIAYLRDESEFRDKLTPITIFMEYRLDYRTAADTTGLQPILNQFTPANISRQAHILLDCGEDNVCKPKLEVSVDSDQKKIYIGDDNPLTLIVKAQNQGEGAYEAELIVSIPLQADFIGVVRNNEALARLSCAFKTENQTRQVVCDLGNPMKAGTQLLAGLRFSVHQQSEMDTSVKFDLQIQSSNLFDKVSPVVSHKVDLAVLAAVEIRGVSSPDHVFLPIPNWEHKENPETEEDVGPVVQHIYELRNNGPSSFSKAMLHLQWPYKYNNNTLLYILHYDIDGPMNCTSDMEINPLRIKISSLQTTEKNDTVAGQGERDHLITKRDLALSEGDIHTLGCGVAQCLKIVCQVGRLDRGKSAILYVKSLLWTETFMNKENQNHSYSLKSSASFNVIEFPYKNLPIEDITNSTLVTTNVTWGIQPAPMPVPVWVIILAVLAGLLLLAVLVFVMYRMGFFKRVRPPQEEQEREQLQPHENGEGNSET
T2 sequence (P18084 24-799 limits assumed, chain 2 of 2): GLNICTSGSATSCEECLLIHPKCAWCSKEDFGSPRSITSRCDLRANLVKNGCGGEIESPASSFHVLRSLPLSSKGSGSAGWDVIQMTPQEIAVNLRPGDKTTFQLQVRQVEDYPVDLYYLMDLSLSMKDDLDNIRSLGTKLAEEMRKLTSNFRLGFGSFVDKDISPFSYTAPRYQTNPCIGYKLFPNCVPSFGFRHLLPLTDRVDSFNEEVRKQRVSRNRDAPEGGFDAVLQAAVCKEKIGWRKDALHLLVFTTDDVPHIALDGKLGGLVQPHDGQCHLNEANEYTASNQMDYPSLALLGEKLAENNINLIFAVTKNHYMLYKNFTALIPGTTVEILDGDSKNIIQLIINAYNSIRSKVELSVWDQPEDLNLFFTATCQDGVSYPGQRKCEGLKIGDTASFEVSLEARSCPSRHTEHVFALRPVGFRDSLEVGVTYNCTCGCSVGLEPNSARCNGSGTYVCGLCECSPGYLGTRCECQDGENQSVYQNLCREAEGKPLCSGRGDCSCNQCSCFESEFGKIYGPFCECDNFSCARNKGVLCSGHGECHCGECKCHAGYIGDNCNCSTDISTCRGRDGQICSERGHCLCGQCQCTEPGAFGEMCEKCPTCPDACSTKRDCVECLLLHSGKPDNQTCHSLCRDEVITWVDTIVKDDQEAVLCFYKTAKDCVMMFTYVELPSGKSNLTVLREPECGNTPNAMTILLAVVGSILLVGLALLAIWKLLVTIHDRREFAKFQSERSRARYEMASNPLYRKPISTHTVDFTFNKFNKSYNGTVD

For one experiment, the target named is T1, human soluble αvβ5 protein (extracellular domains of human αv and β5 integrin subunits) (human, UniProt P06756 31-992; P18084 24-719).
T1 construct: also called biotin-αvβ5; hsαvβ5
T1 sequence (P06756 31-992 limits assumed, chain 1 of 2): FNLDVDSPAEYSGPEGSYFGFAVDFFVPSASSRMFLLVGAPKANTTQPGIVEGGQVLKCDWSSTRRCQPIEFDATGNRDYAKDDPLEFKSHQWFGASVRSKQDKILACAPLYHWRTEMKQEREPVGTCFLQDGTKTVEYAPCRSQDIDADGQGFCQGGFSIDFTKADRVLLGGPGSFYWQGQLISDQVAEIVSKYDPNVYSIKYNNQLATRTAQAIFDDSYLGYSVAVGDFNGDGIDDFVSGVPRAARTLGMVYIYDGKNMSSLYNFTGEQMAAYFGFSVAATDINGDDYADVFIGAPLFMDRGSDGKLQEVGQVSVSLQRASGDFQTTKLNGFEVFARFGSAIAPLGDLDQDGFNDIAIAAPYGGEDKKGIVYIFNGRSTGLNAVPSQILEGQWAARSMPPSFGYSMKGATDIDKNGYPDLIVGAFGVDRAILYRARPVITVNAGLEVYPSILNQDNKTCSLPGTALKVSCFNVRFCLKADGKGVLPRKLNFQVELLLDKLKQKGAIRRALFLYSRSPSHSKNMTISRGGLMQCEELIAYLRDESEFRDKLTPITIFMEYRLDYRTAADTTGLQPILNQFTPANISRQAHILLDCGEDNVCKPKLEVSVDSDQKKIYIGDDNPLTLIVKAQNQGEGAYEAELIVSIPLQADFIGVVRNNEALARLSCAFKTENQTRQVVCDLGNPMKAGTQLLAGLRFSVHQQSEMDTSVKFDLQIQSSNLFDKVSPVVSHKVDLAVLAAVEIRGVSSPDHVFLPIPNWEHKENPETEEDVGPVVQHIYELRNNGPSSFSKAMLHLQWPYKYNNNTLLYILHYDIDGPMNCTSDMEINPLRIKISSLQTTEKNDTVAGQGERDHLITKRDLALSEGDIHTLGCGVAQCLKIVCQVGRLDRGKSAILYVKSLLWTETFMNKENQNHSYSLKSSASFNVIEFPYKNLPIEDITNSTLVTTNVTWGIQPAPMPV
T1 sequence (P18084 24-719 limits assumed, chain 2 of 2): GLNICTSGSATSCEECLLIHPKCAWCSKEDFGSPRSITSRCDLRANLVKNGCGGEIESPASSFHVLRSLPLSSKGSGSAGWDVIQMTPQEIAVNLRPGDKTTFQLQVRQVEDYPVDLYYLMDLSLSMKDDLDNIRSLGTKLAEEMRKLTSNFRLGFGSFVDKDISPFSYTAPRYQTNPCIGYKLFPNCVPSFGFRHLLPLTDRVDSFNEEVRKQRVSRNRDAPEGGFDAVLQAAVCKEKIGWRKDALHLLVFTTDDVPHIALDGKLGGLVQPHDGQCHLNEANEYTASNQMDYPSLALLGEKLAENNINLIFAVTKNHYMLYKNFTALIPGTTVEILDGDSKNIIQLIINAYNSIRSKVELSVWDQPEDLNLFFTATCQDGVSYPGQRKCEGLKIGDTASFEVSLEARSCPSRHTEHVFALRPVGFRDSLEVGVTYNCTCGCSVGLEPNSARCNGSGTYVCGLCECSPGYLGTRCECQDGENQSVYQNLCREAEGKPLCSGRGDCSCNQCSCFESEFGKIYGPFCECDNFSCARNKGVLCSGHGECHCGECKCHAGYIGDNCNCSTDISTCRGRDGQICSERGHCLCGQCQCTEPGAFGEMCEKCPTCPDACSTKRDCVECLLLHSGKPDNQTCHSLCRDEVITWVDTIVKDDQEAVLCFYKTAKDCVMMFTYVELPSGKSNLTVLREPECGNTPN
The experiment can be described thus: ELISA, Fab blocking of 2 nM soluble αvβ5 binding to immobilized human plasma vitronectin. Here is the method:
Fab fragments of the four constructs of Example 6 were generated from the corresponding IgG1(N297Q) versions by digestion with papain. The ability of each Fab to block 2 nM soluble αvβ5 binding to immobilized human plasma vitronectin was determined by ELISA.
On to B1, for which the “Fold change (IC50 against mouse chimeric ALULA)” value amounted to 1.5 fold and the IC50 worked out at 7.3 nM.

With B2, the “Fold change (IC50 against mouse chimeric ALULA)” value came out at 1.6 fold and the half-inhibitory concentration (IC50) came to 7.5 nM.

The next experiment has as its target T2, human αvβ5 expressed on BaF3 cells (stably transfected with human αv and β5 subunits) (human, UniProt P06756 31-1048; P18084 24-799). The experiment can be described thus: cell-based or functional assay.
For the molecule B3, the “VN adhesion inhibition, αvβ5-BaF3 (IC50, nM)” value (“VN adhesion inhibition” below) is 1770 nM.

Take B4: the “VN adhesion inhibition” value was 59.8 nM.

As to B5, the “VN adhesion inhibition” value came to 74.9 nM.

Take B6: the “VN adhesion inhibition” value is 292 nM.

Take B7: the “VN adhesion inhibition” value is 163 nM.

B8: the “VN adhesion inhibition” value was determined as 83.2 nM.

Consider B9, for which the “VN adhesion inhibition” value worked out at 71.8 nM.

Take B10: the “VN adhesion inhibition” value turned out to be 1620 nM.

As for B11, the “VN adhesion inhibition” value was determined as 476 nM.

With B12, the “VN adhesion inhibition” value was determined as 124 nM.

Take B13: the “VN adhesion inhibition” value amounted to 218 nM.

The next experiment addresses T2, human αvβ5 expressed on BaF3 cells …. Kind of experiment: FACS on αvβ5-BaF3 cells, unpurified antibody. Here is the method: FACS Binding Assay: Cells were washed one time in PBS, and then resuspended in FACS buffer (1×PBS, 1% BSA, 1 mM CaCl₂, and 1 mM MgCl₂). 1×10⁶ cells were then incubated on ice for 1 hr in FACS buffer containing the test antibody in a total volume of 50 μl. After incubation, the cells were washed two times with ice cold FACS buffer, resuspended in 50 μl of FACS buffer containing 3 μg/ml goat anti-mouse IgG AlexaFluor488 (Jackson ImmunoResearch), and incubated on ice for 30 min. The cells were then washed twice with ice cold FACS buffer and fixed in 1% PFA overnight. Cell aggregates were removed by filtering through 40 μm filter plates (Millipore) and binding of the labeled secondary antibody was monitored by flow cytometry using a FACS Calibur (BD Biosciences).
(§1) Screening of all combinations of heavy chain versions VH0, VH1, VH2, VH3, VH4, or VH5, with light chains VL0, VL1, VL2, or VL3 was carried out using unpurified proteins in conditioned cell media. The binding of each construct to biotin-conjugated human αvβ5 protein was determined using a solid-phase binding assay (ELISA) and by FACS, and the ability of each construct to block ligand binding was determined using a vitronectin cell adhesion assay (Table 1).
In the case of B3, the 50% effective concentration (EC50) is 1120 nM.

B4: the EC50 turned out to be 126 nM.

Turning to B5, the half-maximal effective concentration (EC50) came to 158 nM.

On to B6, for which the EC50 was 646 nM.

Take B7: the EC50 was found to be 147 nM.

In the case of B8, the EC50 is 359 nM.

Regarding B9, the EC50 was found to be 156 nM.

Regarding B10, the EC50 was 798 nM.

On to B11, for which the EC50 came out at 354 nM.

For the molecule B12, the EC50 was found to be 3310 nM.

With B13, the concentration for a half-maximal effect (EC50) was determined as 244 nM.

For another experiment the target is unchanged. The experiment can be described thus: cell-based or functional assay. The source holds these as a separate data set.
In the case of B3, the “VN adhesion inhibition” value came out at 3 nM.

Regarding B4, the “VN adhesion inhibition” value was determined as 1 nM.

Turning to B5, the “VN adhesion inhibition” value is 1.1 nM.

For the molecule B6, the “VN adhesion inhibition” value amounted to 0.4 nM.

Regarding B7, the “VN adhesion inhibition” value stood at 0.7 nM.

Turning to B8, the “VN adhesion inhibition” value is 0.9 nM.

As to B9, the “VN adhesion inhibition” value turned out to be 0.5 nM.

Consider B10, for which the “VN adhesion inhibition” value was 2.2 nM.

For B11, the “VN adhesion inhibition” value is 1.3 nM.

Take B12: the “VN adhesion inhibition” value stood at 0.6 nM.

B13: the “VN adhesion inhibition” value was 1 nM.

In a further experiment the target is T1, human soluble αvβ5 protein …. Kind of experiment: competition ELISA against 1 nM murine ALULA on coated soluble human αvβ5. Here is the method:
Competition ELISA: A 96-well microtiter plate was coated with 50 μl/well of 5 μg/mL soluble human αvβ5 protein at 4° C. overnight. The plate was washed with wash buffer (0.05% Tween-20 in PBS) four times in an automated plate washer. 300 μl/well of 1% BSA in PBS was added and incubated for 1 hr at 25° C. to block nonspecific binding. The plate was washed as above, and dilutions of humanized antibodies mixed with 1 nM murine ALULA in PBS containing 1% BSA, were added (50 μl/well). The plate was incubated for 1 hr at 25° C., washed, and then incubated for 40 minutes with 100 μl/well of […] goat anti-mouse antibody. Bound antibody was detected using 3,3′,5,5′-tetramethylbenzidine (TMB). Binding was indicated by the absorbency measured at 450 nm.
The binding of each construct to soluble, purified human αvβ5 protein was determined by a competition ELISA with murine ALULA (FIG. 4). […] The remaining constructs behaved similarly, with version H4/L2 showing the lowest IC50 value in this assay.
Consider B3, for which the IC50 came to 18.3 nM.

Regarding B4, the IC50 was found to be 2.2 nM.

Turning to B5, the 50% inhibitory concentration (IC50) worked out at 2 nM.

As for B6, the IC50 was found to be 2.8 nM.

Turning to B7, the IC50 was 3 nM.

B8 gave an IC50 of 2 nM.

In turn, B9 registered an IC50 of 1.6 nM.

B10 gave an IC50 of 14.2 nM.

B11 yielded an IC50 of 3.4 nM.

In the case of B12, the half-maximal inhibitory concentration (IC50) was 3.3 nM.

Regarding B13, the IC50 is 2.8 nM.

Another experiment shares this target. The experiment can be described thus: ELISA, inhibition of soluble αvβ5 binding to coated human plasma vitronectin. The procedure: Vitronectin Inhibition ELISA: 96-well microtiter plates were coated with 5 μg/ml purified human plasma vitronectin diluted in PBS (50 μl/well) at 4° C. overnight. After the coating solution was removed, the plates were blocked with 300 μl/well of 1% BSA/TBS at 25° C. for 1 hr. The plate was washed with wash buffer (0.05% Tween-20 in TBS containing 1 mM CaCl₂ and 1 mM MgCl₂), and dilutions of humanized antibodies mixed with 1 nM soluble αvβ5 protein in TBS containing 1% BSA, 1 mM CaCl₂ and 1 mM MgCl₂ were added (50 μl/well) and incubated at 25° C. for 1 hr. The plate was washed 4 times with wash buffer in an automated plate washer and incubated sequentially with 50 μl/well of the anti-beta5 monoclonal antibody 15F11 (at 0.5 ug/mL) in for 1 hr at 25° C. in TBS containing 1% BSA, 1 mM CaCl₂ and 1 mM MgCl₂. After washing the plate 4 times with wash buffer, 100 μl/well of a 1:5000 dilution of a peroxidase-conjugated goat anti-mouse antibody in TBS containing 1% BSA, 1 mM CaCl₂ and 1 mM MgCl₂ were added and incubated for 1 hr at 25° C. Bound protein was detected using the TMB substrate and indicated by the absorbency measured at 450 nm.
In parallel, the humanized ALULA antibodies were tested in two adhesion assays. One measured the ability of each antibody to inhibit the binding of soluble αvβ5 to purified human plasma vitronectin. In the other assay, the murine BaF3 cell line was stably transfected with human αv and β5 subunits, and the adhesion of these cells to vitronectin was determined using a fluorescence endpoint.
Turning to B3, the IC50 was 11.1 nM.

For B4, the IC50 came to 0.9 nM.

Take B5: the IC50 came out at 1.7 nM.

For B6, the concentration for half-maximal inhibition (IC50) was determined as 1.1 nM.

B7: the IC50 was found to be 1.3 nM.

The molecule B8 came in with a concentration for half-maximal inhibition (IC50) of 1.3 nM.

The molecule B9 displayed an IC50 of 0.6 nM.

B10: the IC50 turned out to be 11.9 nM.

Regarding B11, the IC50 worked out at 2.4 nM.

For B12, the IC50 came to 2.5 nM.

In the case of B13, the IC50 was determined as 3.1 nM.

The target is the same in a further experiment. The experiment can be described thus: ELISA, biotin-αvβ5 on streptavidin plate, unpurified antibody. The procedure: Solid-Phase αvβ5 Binding Assay (ELISA): A 96-well microtiter plate was precoated with streptavidin (Thermo Scientific Reacti-Bind StreptAvidin Coated High Binding Capacity plate) was used. Biotinylated soluble αvβ5 protein (2 μg/mL) in TBS with 1% BSA was added to the wells, and the plate was incubated for 1 hr at 25° C. The plate was washed with wash buffer (0.05% Tween-20 in PBS), and purified humanized ALULA antibody in TBS containing 1% BSA, 1 mM CaCl2, and 1 mM MgCl2 were added (50 μl/well). The plate was incubated for 1 hr at 25° C., washed, and then incubated for 1 hr with 50 μl/well of […] goat anti-human secondary antibody. Bound antibody was detected using 3,3′,5,5′-tetramethylbenzidine (TMB). Binding was indicated by the absorbency measured at 450 nm.
as §1
As for B3, the EC50 stood at 1.2 nM.

As to B4, the EC50 was determined as 0.4 nM.

As for B5, the EC50 is 0.3 nM.

As for B6, the EC50 was found to be 0.7 nM.

As for B7, the EC50 is 0.3 nM.

B8: the EC50 is 0.4 nM.

In the case of B9, the EC50 came to 0.4 nM.

For B10, the EC50 was determined as 1.3 nM.

Consider B11, for which the EC50 was found to be 0.5 nM.

Consider B12, for which the EC50 was 0.7 nM.

Regarding B13, the EC50 was 0.4 nM.

The record behind these values is patent publication US20170362324A1 (Biogen, published 2017).
